The source of these data is patent US20160311886A1, “Constructs Binding to Phosphatidylserine and Their Use in Disease Treatment and Imaging” (Board of Regents, The University of Texas System, priority 2005, published 2016).

The test system of data set [1] is cancer patients having progressive disease. The note with it: human, in vivo; cited from earlier work.
The conditions of data set [2]: in vivo; cited from earlier work.
The test system of data set [3] is ABAE cells with exposed PS. The data set is described as follows: Binding of monomeric and dimeric hβ2GPI to LPC-treated cells. The format is cell-based, bovine. The note with it: 200 μM LPC, DMEM+10% FBS. The protocol: FIG. 24A, FIG. 24B, FIG. 24C and FIG. 24D. An artificial dimeric β2GPI construct binds endothelial cells with exposed PS. ABAE cells were incubated for 30 min with 200 μM LPC in DMEM+10% FBS plus purified hβ2GPI-monomer (FIG. 24A), hβ2GPI-dimer (FIG. 24B), or a mutant hβ2GPI-dimer unable to bind lipid (FIG. 24C). Cells were then washed and incubated with anti-β2GPI to detect hβ2GPI monomers and dimers. […] Cells were then washed, fixed and stained with fluorescent markers. The cytoskeleton appears red, nuclei appear blue, and hβ2GPI-monomers and hβ2GPI-dimers appear green. FIG. 24D, the binding area of hβ2GPI-monomers and hβ2GPI-dimers was quantified using MetaVue software. All values are relative to the binding of hβ2GPI-dimers to non-LPC treated cells, which was set to one.
In these studies, an artificial β2GPI dimer is used, which was generated by fusing hβ2GPI to the C-terminus of the apple 4 dimerization domain of factor XI (Lutters et al., 2001). […] Nonetheless, binding of this dimer to cells with exposed PS validates the use of Fc-β2GPI dimers to bind to PS-positive cells.
ABAE cells were treated with LPC to induce PS exposure and incubated with purified hβ2GPI, hβ2GPI-dimer, or a mutant hβ2GPI-dimer containing a disrupted lipid binding domain. As expected, binding of the monomeric hβ2GPI to LPC-treated ABAE cells was negligible (FIG. 24A).

For data set [4], the system named is ABAE cells with exposed PS. The data set is described as follows: Live-cell binding assay on LPC-treated endothelial cells. The format is cell-based, bovine. How it is done: Adult bovine aortic endothelial (ABAE) cells were maintained in DMEM supplemented with 10% FBS and 2 mM L-glutamine. ABAE cells were removed from subconfluent cultures by brief exposure to 0.25% trypsin/0.02% EDTA, and 8-well chamber slides were seeded with 2×10^4 cells/well. Following overnight culture, cells were washed gently with PBS and treated with 200 μM lysophosphatidylcholine (LPC) to induce PS exposure.
PS exposure was determined by immunofluorescence staining. Cells were washed thoroughly in PBS, fixed in 4% paraformaldehyde (w/v), and incubated with a biotin-conjugated anti-mouse secondary antibody. Next, cells were incubated with FITC-conjugated streptavidin (Jackson Immunoresearch) to detect antibody binding. Cells were then permeablized with 0.1% Triton-X100 in PBS and counterstained with Texas Red-conjugated phalloidin (Molecular Probes, Eugene, Oreg.), and 4′, 6-diamidino-2-phenylindole (DAPI; Molecular Probes). Images were captured using a Coolsnap digital camera (Photometrics, Tucson, Ariz.) mounted on a Nikon microscope and processed with MetaVue software (Universal Imaging Corporation, Downingtown, Pa.).
The area of antibody binding was determined using MetaVue image analysis software, which is able to quantify the number of illuminated pixels in an image. Images of FITC fluorescence were used to quantify antibody binding. Corresponding images of DAPI fluorescence were used to normalize the FITC images for the number of cells present in the field. A small FITC/DAPI ratio indicates a small antibody binding area, whereas a large FITC/DAPI ratio indicates a large binding area. The FITC/DAPI ratios were used to determine increases or decreases in antibody binding area relative to a basal amount of antibody binding under the selected conditions. Five images at 200× magnification were used for each analysis. Data are presented as average relative FITC/DAPI ratios with error bars representing the standard deviation.
Cells were then washed, fixed, and stained with fluorescent markers to visualize binding of antibody to the cell surface.

On to `NC(=O)c1nnn(Cc2cc(Cl)c(C(=O)c3ccc(Cl)cc3)c(Cl)c2)c1N` [CAI, carboxyamidotriazole], for which the “patients with disease stabilization” value in data set [1] is 49%.

For monophosphoryl lipid A [MPL], the “dose shown to be safe for human use” value in data set [2] is recorded as 100 μg/m^2.

B1: hβ2GPI: Human β2GPI purified from human plasma (protein)
chain: GRTCPKPDDLPFSTVVPLKTFYEPGEEITYSCKPGYVSRGGMRKFICPLTGLWPINTLKCTPRVCPFAGILENGAVRYTTFEYPNTISFSCNTGFYLNGADSAKCTEEGKWSPELPVCAPIICPPPSIPTFATLRVYKPSAGNNSLYRDTAVFECLPQHAMFGNDTITCTTHGNWTKLPECREVKCPFPSRPDNGFVNYPAKPTLYYKDKATFGCHDGYSLDGPEEIECTKLGNWSAMPSCKASCKLPVKKATVVYQGERVKIQEKFKNGMLHGDKVSFFCKNKEKKCSYTEDAQCIDGTIEVPKCFKEHSSLAFWKTDASDVKPC
Take B1: in data set [3], the “binding to LPC-treated ABAE cells” value is listed as “negligible”. In data set [4] (2 μg/ml, LPC), the “mediation of ch3G4 binding to ABAE cells with exposed PS” value is listed as “able to mediate binding”. Besides, the “binding to endothelial cells with exposed PS” value in data set [4] (10% MS and LPC, absence of ch3G4) is on record as “does not bind endothelial cells with exposed PS in the absence of ch3G4”.
